Values belong to the substance of their own block, whether it stands above or below them.
Experiments:
Assay in all cases: cell-based or functional assay
[1] = biological target: DR3 receptor expressed in HeLa TRADD DR3 cells (Homo sapiens (Human)) (UniProt Q93038)
[2] = biological target: Recombinant Human TL1A/TNFSF15 (R&D Systems, Cat N° 1319-TL) (human) (UniProt O95150)
[3] = biological target: recombinant human TNF-α (Peprotech, Cat N° 300-01A) (human) (UniProt P01375)
Chain of recombinant human TNF-α (Peprotech, Cat N° 300-01A) (human) (P01375 77-233 limits assumed): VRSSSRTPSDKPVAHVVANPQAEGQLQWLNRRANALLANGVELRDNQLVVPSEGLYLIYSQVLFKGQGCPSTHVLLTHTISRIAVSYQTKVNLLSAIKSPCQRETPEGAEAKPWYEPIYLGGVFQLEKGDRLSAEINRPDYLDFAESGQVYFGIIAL

Chain of Recombinant Human TL1A/TNFSF15 (R&D Systems, Cat N° 1319-TL) (human) (O95150 72-251 limits assumed): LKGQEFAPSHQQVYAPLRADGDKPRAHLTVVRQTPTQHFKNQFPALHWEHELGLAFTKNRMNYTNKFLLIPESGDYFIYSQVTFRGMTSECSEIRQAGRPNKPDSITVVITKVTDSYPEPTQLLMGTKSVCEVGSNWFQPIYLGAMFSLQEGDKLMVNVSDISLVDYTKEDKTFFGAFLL
Chain of DR3 receptor expressed in HeLa TRADD DR3 cells (Homo sapiens (Human)) (Q93038 other isoform, or with tags, fused parts or gaps, form in doubt): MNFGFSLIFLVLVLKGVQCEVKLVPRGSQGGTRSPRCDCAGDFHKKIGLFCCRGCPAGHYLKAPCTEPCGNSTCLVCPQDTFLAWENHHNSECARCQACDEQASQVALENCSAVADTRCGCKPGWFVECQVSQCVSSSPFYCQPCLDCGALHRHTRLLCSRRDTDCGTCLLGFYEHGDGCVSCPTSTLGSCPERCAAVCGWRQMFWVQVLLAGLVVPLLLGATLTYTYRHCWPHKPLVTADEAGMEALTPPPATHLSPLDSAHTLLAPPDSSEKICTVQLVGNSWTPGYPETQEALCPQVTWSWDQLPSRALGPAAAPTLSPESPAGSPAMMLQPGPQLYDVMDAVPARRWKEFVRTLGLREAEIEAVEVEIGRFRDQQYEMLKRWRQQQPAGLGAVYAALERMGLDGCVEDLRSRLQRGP

EC50 of TL1A-induced relocalisation of TRADD-EYFP in HeLa TRADD DR3 cells (FIG. 17) [1]: 0.0043 µg/mL
Substance: Recombinant Human TL1A/TNFSF15 (R&D Systems, Cat N° 1319-TL) (from UniProt O95150 72-251) (ligand)

IC50 of inhibition of TL1A-induced TRADD-EYFP relocalisation in HeLa TRADD DR3 cells (300 ng/ml TL1A, FIG. 17) [2]: 1.41 µg/mL
Substance: Recombinant Human DcR3/TNFRSF6B/Fc Chimera, CF (R&D Systems, Cat N° 142-DC) (from UniProt O95407 30-300) (Fc fusion)

IC50 of inhibition of TNF-induced TRADD-EYFP relocalisation in HeLa TRADD DR3 cells (100 ng/ml TNF, FIG. 19) [3]: 0.0538 µg/mL
IC50 of inhibition of TNF-induced relocalisation of TRADD-EYFP (TNF dose 300 ng/ml, FIG. 9) [3]: 2740 nM
Substance: etanercept (Enbrel®, from Amgen, Inc.) (Fc fusion)

Source: US20110319287A1, “MODULATOR ASSAY” (ADDEX PHARMA S.A., priority 2009, published 2011)
